Consider 39 sequences from the supplement of paper PMC7877785.

This data set in a line: self-splicing fitness, log relative to wild type (ln ratio); higher = more splicing; Tetrahymena group I intron in knt gene, E. coli kanamycin selection, DiMSum; sequences stand for … in CUCUCU…GGAGGGAAAAGUUAUCAGGCAUGCACCUGGUAGCUAGUCUUUAAACCAAUAGAUUGCAUCGGUUUAAAAGGCAAGACCGUCAAAUUGCGGGAAAGGGGUCAACAGCCGUUCAGUACCAAGUCUCAGGGGAAACUUUGAGAUGGCCUUGCAAAGGGUAUGGUAAUAAGCUGACGGACAUGGUCCUAACCACGCAGCCAAGUCCUAAGUCAACAGAUCUUCUGUUGAUAUGGAUGCAGUUCACAGACUAAAUGUCGGUCGGGGAAGAUGUAUUCUUCUCAUAAGAUAUAGUCGGACCUCUCCUUAAUGGGAGCUAGCGGAUGAAGUGAUGCAACACUGGAGCCGCUGGGAACUAAUUUGUAUGCGAAAGUAUAUUGAUUAGUUUUGGAGUACUCGUGGUCG
The method in brief: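 Library with all eight P1ex-region intron nucleotides randomised, intron inside the knt kanamycin-resistance gene on pET-22b(+), in E. coli BL21(DE3). Cells grew overnight at 37°C or 30°C on LB agar with or without 25 μg/mL kanamycin (plus 100 μg/mL carbenicillin, 50 μM IPTG, 0.2% rhamnose), in six replicate transformations. Pooled colonies were amplicon-sequenced on Illumina HiSeq 2500. DiMSum fitness is the error-weighted combination of wild-type-normalised replicate fold changes, kanamycin versus none.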

± gives the uncertainty stated by the source.

Turning to UGCUAGCAAUAUUACGGGGC, the “self-splicing fitness (ln)” value by setting is: (30 °C) -3.59 ± 0.29; (37 °C) -2.69 ± 0.25.

In the case of AGACAGCAAUAUUACGUGUU, the “self-splicing fitness (ln)” value was -3.8 ± 0.16 (30 °C) and -2.29 ± 0.14 (37 °C).

Turning to AGCCAGCAAUAUUACGCUUG, the “self-splicing fitness (ln)” value was -3.52 ± 0.17 (30 °C) and -1.58 ± 0.17 (37 °C).

In the case of UAGAAGCAAUAUUACGUUUG, the “self-splicing fitness (ln)” value runs as follows: (30 °C) -2.32 ± 0.1; (37 °C) -0.879 ± 0.12.

GAUCAGCAAUAUUACGGGAC: the “self-splicing fitness (ln)” value reads like this: (30 °C) -1.51 ± 0.085; (37 °C) -0.976 ± 0.1.

As for AUCCAGCAAUAUUACGGCGG, the “self-splicing fitness (ln)” value runs as follows: (30 °C) -1.04 ± 0.09; (37 °C) -0.327 ± 0.11.

In the case of CCUGAGCAAUAUUACGCACC, where the note is “37 °C”, the “self-splicing fitness (ln)” value was -1.74 ± 0.4.

For the sequence CUAAAGCAAUAUUACGGUCU, the “self-splicing fitness (ln)” value reads like this: (30 °C) -3.74 ± 0.21; (37 °C) -3.69 ± 0.29.

For the sequence UAGUAGCAAUAUUACGACAG, the “self-splicing fitness (ln)” value by setting is: (30 °C) -2.01 ± 0.3; (37 °C) -1.18 ± 0.37.

With CGUCAGCAAUAUUACGGGCC, the “self-splicing fitness (ln)” value is, setting by setting: (30 °C) -1.25 ± 0.087; (37 °C) -0.797 ± 0.11.

As to CUGAAGCAAUAUUACGACCG, the “self-splicing fitness (ln)” value (30 °C) is 0.3 ± 0.15 and the “self-splicing fitness (ln)” value (37 °C) worked out at 0.854 ± 0.17.

On to UCGUAGCAAUAUUACGGCAU, for which the “self-splicing fitness (ln)” value was -3.93 ± 0.27 (30 °C) and -2.53 ± 0.28 (37 °C).

Consider UUCCAGCAAUAUUACGGAAC, for which the “self-splicing fitness (ln)” value (37 °C) was -3.19 ± 0.4.

On to CUUGAGCAAUAUUACGUUUU, for which the “self-splicing fitness (ln)” value was -3.92 ± 0.28 (30 °C) and -3.44 ± 0.3 (37 °C).

Turning to CGGGAGCAAUAUUACGAACG, the “self-splicing fitness (ln)” value is, setting by setting: (30 °C) -4.35 ± 0.24; (37 °C) -3 ± 0.23.

For AUUCAGCAAUAUUACGCUUA, the “self-splicing fitness (ln)” value was -0.623 ± 0.078 (30 °C) and -0.332 ± 0.091 (37 °C).

As for AACUAGCAAUAUUACGACGA, the “self-splicing fitness (ln)” value by setting is: (30 °C) -0.137 ± 0.066; (37 °C) -0.576 ± 0.074.

With UAUGAGCAAUAUUACGAUGU, the “self-splicing fitness (ln)” value (30 °C) is -4.02 ± 0.37 and the “self-splicing fitness (ln)” value (37 °C) is -3.62 ± 0.46.

Turning to UAUCAGCAAUAUUACGGAAC, the “self-splicing fitness (ln)” value (30 °C) was -1.44 ± 0.21.

Consider CCACAGCAAUAUUACGUGUG, for which the “self-splicing fitness (ln)” value is, setting by setting: (30 °C) -3.61 ± 0.095; (37 °C) -2.36 ± 0.092.

UCGCAGCAAUAUUACGCAUU: the “self-splicing fitness (ln)” value was -2.57 ± 0.18 (30 °C) and -2.43 ± 0.21 (37 °C).

For the sequence CCACAGCAAUAUUACGGGAC, the “self-splicing fitness (ln)” value is, setting by setting: (30 °C) -3.78 ± 0.33; (37 °C) -2.26 ± 0.2.

As to UUUUAGCAAUAUUACGUUUG, the “self-splicing fitness (ln)” value (30 °C) is -1.6 ± 0.082 and the “self-splicing fitness (ln)” value (37 °C) was -0.497 ± 0.12.

On to AGCUAGCAAUAUUACGGCGC, for which the “self-splicing fitness (ln)” value (30 °C) is -1.1 ± 0.093 and the “self-splicing fitness (ln)” value (37 °C) was -0.362 ± 0.14.

Turning to AAUGAGCAAUAUUACGCUGG, the “self-splicing fitness (ln)” value was -3.22 ± 0.2 (30 °C) and -2.08 ± 0.25 (37 °C).

In the case of GACUAGCAAUAUUACGCCUC, the “self-splicing fitness (ln)” value is, setting by setting: (30 °C) -0.374 ± 0.14; (37 °C) -1.76 ± 0.16.

GGCCAGCAAUAUUACGACUA: the “self-splicing fitness (ln)” value (30 °C) was -0.921 ± 0.1 and the “self-splicing fitness (ln)” value (37 °C) was -0.322 ± 0.1.

Consider UUAUAGCAAUAUUACGAGCU, for which the “self-splicing fitness (ln)” value (37 °C) was -2.16 ± 0.26.

For the sequence GAUCAGCAAUAUUACGUUGU, the “self-splicing fitness (ln)” value reads like this: (30 °C) -3.48 ± 0.13; (37 °C) -2.78 ± 0.16.

For UCUAAGCAAUAUUACGUCUA, the “self-splicing fitness (ln)” value runs as follows: (30 °C) -2.51 ± 0.33; (37 °C) -2.25 ± 0.4.

In the case of UUCCAGCAAUAUUACGGCUU, the “self-splicing fitness (ln)” value is -1.4 ± 0.11 (30 °C) and -0.36 ± 0.1 (37 °C).

On to CUCUAGCAAUAUUACGGCGC, for which the “self-splicing fitness (ln)” value reads like this: (30 °C) -2.53 ± 0.28; (37 °C) -3.04 ± 0.43.

Regarding CUUAAGCAAUAUUACGCAGU, the “self-splicing fitness (ln)” value was -3.71 ± 0.46 (30 °C) and -2.56 ± 0.28 (37 °C).

As to UCACAGCAAUAUUACGAGCA, the “self-splicing fitness (ln)” value is, setting by setting: (30 °C) -1.28 ± 0.081; (37 °C) 0.102 ± 0.089.

As to GAGCAGCAAUAUUACGCGCU, the “self-splicing fitness (ln)” value was -3.19 ± 0.38 (30 °C) and -1.9 ± 0.36 (37 °C).

UUGCAGCAAUAUUACGUCUU: the “self-splicing fitness (ln)” value is, setting by setting: (30 °C) -0.0818 ± 0.069; (37 °C) 0.289 ± 0.077.

For the sequence UUCGAGCAAUAUUACGCGAG, the “self-splicing fitness (ln)” value by setting is: (30 °C) -2.72 ± 0.37; (37 °C) -1.94 ± 0.44.

As for UUCUAGCAAUAUUACGAAUA, the “self-splicing fitness (ln)” value is -2.64 ± 0.3 (30 °C) and -0.478 ± 0.17 (37 °C).

Take UGCUAGCAAUAUUACGGGAA: the “self-splicing fitness (ln)” value is -1.83 ± 0.15 (30 °C) and -0.95 ± 0.16 (37 °C).
